Results on 2 sequences are retold here after US9314532B2, “Drug delivery vehicle” (University of North Texas Health Science Center, priority 2012, dated 2016).

Data set [1] is described as follows: mRNA encapsulation, particle size. Format: physicochemical. The settings on record: mRNA/phospholipid particles upon addition of the MYR-5A peptide. The source says: In an embodiment of the present invention, ˜2 kb mRNA was encapsulated to improve its functionality and bioavailability. mRNA was combined with phospholipid in the presence of detergent and particles of approximately 3 μm diameter were obtained. […] The smaller particle is suitable for efficient delivery of the mRNA to target cells and for therapeutic applications.

Data set [2] can be described thus: paclitaxel encapsulation efficiency into myristoyl peptide nanoparticles (3H-paclitaxel). The settings on record: after centrifugation at 5,000 RPM for 5 minutes. It counts as physicochemical. The protocol: Paclitaxel encapsulation efficiency into myristoyl peptide nanoparticles based on measurements of 3H-paclitaxel is shown in FIG. 8. […] In order to clarify the preparations, the samples were centrifuged at 5,000 RPM for 5 minutes.

Ends that are not written are not given here.

As to “DWLKAFYDKVAEKLKEAFPDWAKAAYDKAAEKAKEAA (also: myristoyl, place not given here) [MYR-5A, control peptide]”, the particle size in data set [1] is on record as roughly 500 nm.
As for “EKLKALLEKLLAKLKELL (also: myristoyl, place not given here) [compound 39877]”, the “initial amount of paclitaxel retained” value in data set [2] is on record as 60%.
